Results published in US6897296.

T1: proMch4 (35S-labeled wild type Mch4)
T1 chain: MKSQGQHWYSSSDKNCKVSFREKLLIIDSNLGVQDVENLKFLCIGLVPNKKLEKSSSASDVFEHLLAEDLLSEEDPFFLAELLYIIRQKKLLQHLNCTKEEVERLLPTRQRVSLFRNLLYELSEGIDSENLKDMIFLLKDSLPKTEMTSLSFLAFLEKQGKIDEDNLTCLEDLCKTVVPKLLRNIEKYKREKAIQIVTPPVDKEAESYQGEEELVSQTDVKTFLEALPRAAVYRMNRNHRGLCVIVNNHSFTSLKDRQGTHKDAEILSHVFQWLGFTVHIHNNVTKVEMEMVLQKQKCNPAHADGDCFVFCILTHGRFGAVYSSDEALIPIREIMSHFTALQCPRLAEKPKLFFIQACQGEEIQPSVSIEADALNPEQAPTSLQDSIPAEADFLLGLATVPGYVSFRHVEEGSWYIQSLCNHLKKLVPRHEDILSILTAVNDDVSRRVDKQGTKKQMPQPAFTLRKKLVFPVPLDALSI

T2: DEVD-AMC (not fully specified)
T2 chain: DEVD

T3: YVAD-AMC (not fully specified)
T3 chain: YVAD

T4: truncated Mch4-M134
T4 chain: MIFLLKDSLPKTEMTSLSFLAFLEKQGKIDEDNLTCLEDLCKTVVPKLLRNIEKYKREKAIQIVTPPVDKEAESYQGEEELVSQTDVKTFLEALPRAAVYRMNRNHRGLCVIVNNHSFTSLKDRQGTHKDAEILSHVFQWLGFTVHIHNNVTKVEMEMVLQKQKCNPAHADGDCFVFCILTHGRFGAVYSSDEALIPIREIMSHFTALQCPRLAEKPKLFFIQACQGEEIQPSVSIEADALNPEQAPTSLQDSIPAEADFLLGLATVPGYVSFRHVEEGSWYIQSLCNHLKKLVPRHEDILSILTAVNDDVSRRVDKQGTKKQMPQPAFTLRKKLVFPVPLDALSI


Key:
[1] = target: T1, proMch4 (35S-labeled wild type Mch4)
DEVD-AMC = target: T2, DEVD-AMC
YVAD-AMC = target: T3, YVAD-AMC
truncated Mch4-M134 = target: T4, truncated Mch4-M134

Protein	cleavage of proenzyme [1]	cleavage of 35S-labeled proenzyme, SDS-PAGE and autoradiography [1]	further results
Mch2 (protein) AFYKREMFDPAEKYKMDHRRRGIALIFNHERFFWHLTLPERRGTCADRDNLTRRFSDLGFEVKCFNDLKAEELLLKIHEVSTVSHADADCFVCVFLSHGEGNHIYAYDAKIEIQTLTGLFKGDKCHSLVGKPKIFIIQACRGNQHDVPVIPLDVVDNQTEKLDTNITEVDAASVYTLPAGADFLMCYSVAEGYYSHRETVNGSWYIQDLCEMLGKYGSSLEFTELLTLVNRKVSQRRVDFCKDPSAIGKKQVPCFASMLTKKLHFFPKSN	none of these enzymes were able to efficiently process proMch4	–	–
ICE (protein) NPAMPTSSGSEGNVKLCSLEEAQRIWKQKSAEIYPIMDKSSRTRLALIICNEEFDSIPRRTGAEVDITGMTMLLQNLGYSVDVKKNLTASDMTTELEAFAHRPEHKTSDSTFLVFMSHGIREGICGKKHSEQVPDILQLNAIFNMLNTKNCPSLKDKPKVIIIQACRGDSPGVVWFKDSVGVSGNLSLPTTEEFEDDAIKKAHIEKDFIAFCSSTPDNVSWRHPTMGSVFIGRLIEHMQEYACSCDVEEIFRKVRFSFEQPDGRAQMPTTERVTLTRCFYLFPGH	none of these enzymes were able to efficiently process proMch4	–	–
recombinant CPP32 (protein) SGISLDNSYKMDYPEMGLCIIINNKNFHKSTGMTSRSGTDVDAANLRETFRNLKYEVRNKNDLTREEIVELMRDVSKEDHSKRSSFVCVLLSHGEEGIIFGTNGPVDLKKITNFFRGDRCRSLTGKPKLFIIQACRGTELDCGIETDSGVDDDMACHKIPVEADFLYAYSTAPGYYSWRNSKDGSWFIQSLCAMLKQYADKLEFMHILTRVNRKVATEFESFSFDATFHAKKQIPCIVSMLTKELYFYH	–	there was no significant cleavage of proMch4 when incubated with recombinant CPP32 or Mch3 enzymes	–
TX (protein) QISPNKKAHPNMEAGPPESGESTDALKLCPHEEFLRLCKERAEEIYPIKERNNRTRLALIICNTEFDHLPPRNGADFDITGMKELLEGLDYSVDVEENLTARDMESALRAFATRPEHKSSDSTFLVLMSHGILEGICGTVHDEKKPDVLLYDTIFQIFNNRNCLSLKDKPKVIIVQACRGANRGELWVRDSPASLEVASSQSSENLEEDAVYKTHVEKDFIAFCSSTPHNVSWRDSTMGSIFITQLITCFQKYSWCCHLEEVFRKVQQSFETPRAKAQMPTIERLSMTRYFYLFPGN	none of these enzymes were able to efficiently process proMch4	–	–
recombinant Mch3 (protein) AKPDRSSFVPSLFSKKKKNVTMRSIKTTRDRVPTYQYNMNFEKLGKCIIINNKNFDKVTGMGVRNGTDKDAEALFKCFRSLGFDVIVYNDCSCAKMQDLLKKASEEDHTNAACFACILLSHGEENVIYGKDGVTPIKDLTAHFRGDRCKTLLEKPKLFFIQACRGTELDDGIQADSGPINDTDANPRYKIPVEADFLFAYSTVPGYYSWRSPGRGSWFVQALCSILEEHGKDLEIMQILTRVNDRVARHFESQSDDPHFHEKKQIPCVVSMLTKELYFSQ	–	there was no significant cleavage of proMch4 when incubated with recombinant CPP32 or Mch3 enzymes	–
bacterially expressed recombinant Mch4 (GST-Mch4 fusion protein) (protein) IQIVTPPVDKEAESYQGEEELVSQTDVKTFLEALPRAAVYRMNRNHRGLCVIVNNHSFTSLKDRQGTHKDAEILSHVFQWLGFTVHIHNNVTKVEMEMVLQKQKCNPAHADGDCFVFCILTHGRFGAVYSSDEALIPIREIMSHFTALQCPRLAEKPKLFFIQACQGEEIQPSVSIEADALNPEQAPTSLQDSIPAEADFLLGLATVPGYVSFRHVEEGSWYIQSLCNHLKKLVPRHEDILSILTAVNDDVSRRVDKQGTKKQMPQPAFTLRKKLVFPVPLDALSI	–	–	Km (DEVD-AMC) (DEVD-AMC): 130 µM; Vmax/Km (DEVD-AMC): Vmax/KmMch4=18; Km (YVAD-AMC) (YVAD-AMC): 150 µM; cleavage of 35S-labeled proenzyme, SDS-PAGE and autoradiography (truncated Mch4-M134): Although Mch4 was able to cleave proMch4, its activity towards its proenzyme was significantly lower than that towards proCPP32 and proMch3 (FIG. 5B, lane 7)
